Experimental data as given in EP4667489A1 (Kyinno Biotechnology Co., Ltd., dated 2025).
Read-outs that look alike come from different tables or passages of the source. Values belong to the binder of their own block, whether it stands above or below them.

Tests used:
[1] = biological target: T1, PDL1-hFc (Kyinno, Cat No.: KP-1009) (human, UniProt Q9NZQ7 19-238, limits assumed); test: flow cytometry, blocking of PDL1 Fc fusion (taken as PDL1-hFc) binding to 293T-PD1 cells
T1 construct: bought; not shown: human Fc (hFc)

[2] = biological target: T2, PDL1-His (Kyinno, Cat No.: KP-1022) (UniProt Q9NZQ7 19-238, limits assumed); test: BLI (ForteBio Octet), PDL1-His as mobile phase
T2 construct: not shown: His tag

[3] = biological target: T3, human PDL1 expressed on 293T-PDL1 cells (human, UniProt Q9NZQ7 19-290); test: flow cytometry on 293T-PDL1 cells
T3 construct: whole, on cells; in the signalling assays PDL1 stood on 293T OS8-hPDL1 cells (Kyinno KC-1148); also called PDL1-expressing cells; 293T OS8-hPDL1 cells

[4] = biological target: T3, human PDL1 expressed on 293T-PDL1 cells; test: cell-based or functional assay
[5] = biological target: T4, EGFR-hFc (Kyinno, Cat No.: KP-1149) (UniProt P00533 25-645, limits assumed); test: ELISA, blocking of EGFR Fc fusion (taken as EGFR-hFc) binding to coated EGF-His
T4 construct: bought; also called EGFR-Fc; not shown: human Fc (hFc)

[6] = biological target: T5, human EGFR expressed on CT26-EGFR cells (human, UniProt P00533 25-1210); test: cell-based or functional assay
[7] = biological target: T6, EGFR-His (Kyinno, Cat No.: KP-1150) (UniProt P00533 25-645, limits assumed); test: BLI (ForteBio Octet), EGFR-His as mobile phase
T6 construct: bought; not shown: His tag

[8] = biological target: T5, human EGFR expressed on CT26-EGFR cells; test: flow cytometry on CT26-EGFR cells
[9] = biological target: T7, PD1-hFc (fusion protein of the human PD1 extracellular domain and human IgG1-Fc) (human, UniProt Q15116 25-170); test: flow cytometry, blocking of PD1-hFc binding to 293T-PDL1 cells
T7 construct: extracellular domain; also called human PD1-hFc; not shown: human IgG1-Fc, Genbank CAC20454.1

[10] = biological target: T8, human PD1 expressed on 293T-PD1 cells (human, UniProt Q15116 25-288); test: flow cytometry on 293T-PD1 cells
T8 construct: whole, on cells; 293T cells stably expressing human PD1 (Kyinno KC-0204); also called PD1-expressing cells; Jurkat NFAT-PD1-luc cells

[11] = biological target: T3, human PDL1 expressed on 293T-PDL1 cells; test: cell-based or functional assay; remark: listed apart in the source
[12] = biological target: T9, PDL1-mFc (fusion protein of the human PDL1 extracellular domain and mouse Fc; Kyinno, Cat No.: KP-1008) (human; mouse, UniProt Q9NZQ7 19-238); test: flow cytometry, blocking of PDL1-mFc binding to 293T-PD1 cells
T9 construct: extracellular domain; bought; also called human PDL1-mFc; not shown: mouse Fc

[13] = biological target: T3, human PDL1 expressed on 293T-PDL1 cells; test: flow cytometry on 293T-PDL1 cells; remark: listed apart in the source
[14] = biological target: T10, EGFR-mFc (fusion protein of the human EGFR extracellular domain and mouse Fc; Kyinno, Cat No.: KP-1148) (human; mouse, UniProt P00533 25-645); test: ELISA, blocking of EGFR-mFc binding to coated EGF-His
T10 construct: extracellular domain; bought; also called EGFR-Fc; not shown: mouse Fc

[15] = biological target: T5, human EGFR expressed on CT26-EGFR cells; test: flow cytometry on CT26-EGFR cells; remark: listed apart in the source
[16] = biological target: T5, human EGFR expressed on CT26-EGFR cells; test: cell-based or functional assay; remark: listed apart in the source

T3 sequence (Q9NZQ7 19-290): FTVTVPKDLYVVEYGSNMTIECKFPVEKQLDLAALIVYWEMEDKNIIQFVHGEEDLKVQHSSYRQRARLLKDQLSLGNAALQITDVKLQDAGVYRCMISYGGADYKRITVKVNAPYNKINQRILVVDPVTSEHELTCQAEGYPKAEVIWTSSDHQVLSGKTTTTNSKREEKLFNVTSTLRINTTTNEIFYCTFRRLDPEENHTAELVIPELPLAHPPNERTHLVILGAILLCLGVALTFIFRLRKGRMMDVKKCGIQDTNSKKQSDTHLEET
T2 sequence (Q9NZQ7 19-238 limits assumed): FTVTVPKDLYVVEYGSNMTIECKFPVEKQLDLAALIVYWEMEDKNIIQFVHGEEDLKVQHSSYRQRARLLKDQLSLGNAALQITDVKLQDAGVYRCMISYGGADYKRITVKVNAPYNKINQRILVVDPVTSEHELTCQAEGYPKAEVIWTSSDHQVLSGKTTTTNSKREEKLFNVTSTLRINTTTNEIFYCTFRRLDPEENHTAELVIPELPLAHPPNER
T9 sequence (Q9NZQ7 19-238): as the sequence (Q9NZQ7 19-238 limits assumed) above
T1 sequence (Q9NZQ7 19-238 limits assumed): as above
T7 sequence (Q15116 25-170): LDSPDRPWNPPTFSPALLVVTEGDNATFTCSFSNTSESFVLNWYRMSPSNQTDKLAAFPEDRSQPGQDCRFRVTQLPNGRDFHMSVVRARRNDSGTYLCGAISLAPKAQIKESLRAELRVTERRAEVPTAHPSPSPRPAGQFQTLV
T8 sequence (Q15116 25-288): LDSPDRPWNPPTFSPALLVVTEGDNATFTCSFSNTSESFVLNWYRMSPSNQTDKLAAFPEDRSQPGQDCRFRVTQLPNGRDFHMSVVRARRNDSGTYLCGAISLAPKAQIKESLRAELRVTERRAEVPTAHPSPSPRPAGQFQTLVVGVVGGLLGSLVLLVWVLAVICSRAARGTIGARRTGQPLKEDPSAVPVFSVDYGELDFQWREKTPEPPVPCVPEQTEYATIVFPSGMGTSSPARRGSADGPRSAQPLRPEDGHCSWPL

B2: anti-EGFR murine antibody 22A12-2 (hybridoma cell line KD-22-0198 22A12-2) (antibody, V domains shown)
VH: EVQLQQSGPELVKPGASVKISCKASGYTFTDYYMNWVKQSHGKSLEWIGDINPNDGGTSYNQKFKGKATLTVDKSSSTAYMELRSLTSEDSAVYYCAREILYYVTSFYFDYWGQGTTLTVSS
VL: QIVLTQSPAIMSASPGEKVTMTCSATSGVSYMHWYQQKSGTSPKRWIYDTSRLASGVPARFSGSGSGTSYSLTISSMEAEDAATYYCQQWSSNPPYTFGSGTKLEIK
notes: murine antibody
IC50 [5]: 1.58 µg/mL
IC50, luciferase reporter (293T-NFAT-Luc2-EGFR cells stimulated with EGF-His) [6]: 0.373 µg/mL
Kd [7]: 1.15 nM
koff [7]: 0.00111 s⁻¹
kon [7]: 965000 M⁻¹ s⁻¹
EC50 [8]: 0.0242 µg/mL

B4: KA-2016 H58E3-2V4-2-hIgG1 (antibody, V domains shown)
VH: QVQLVESGGGLVKPGGSLRLSCAASGFTFSDYGIHWIRQAPGKGLEWVAFISSGSSTIYYADAVKGRFTISRDNAKNSLYLQMNSLRAEDTAVYYCTRRDFYGSADAMDYWGQGTTVTVSS
VL: DIQLTQSPSTLSASVGDRVTITCSATSSIGYMHWYQQKPGTSPKRWIYDTSKLASGVPSRFSGSGSGTEYTLTISSLQPDDFATYYCQLWSSDPPYTFGQGTRLEIKR
notes: anti-PDL1 humanized antibody, human IgG1 / kappa
IC50, luciferase reporter (procedure of Example 25) [11]: 0.081 nM
IC50 [12]: 0.0229 µg/mL
EC50 [13]: 0.0419 µg/mL

B5: KA-1063 H22A12-2V1-hIgG1 (antibody, V domains shown)
VH: QVQLVQSGAEVKKPGASVKVSCKASGYTFTDYYMNWVRQAPGQGLEWIGDINPNDGGTSYNQKFKGRATLTVDKSTSTAYMELSSLRSEDTAVYYCAREILYYVTSFYFDYWGQGTTVTVSS
VL: DIQITQSPSSLSASVGDRVTITCSATSGVSYMHWYQQKPGKAPKRLIYDTSRLASGVPSRFSGSGSGTDYTLTISSLQPEDFATYYCQQWSSNPPYTFGQGTRLEIKR
notes: anti-EGFR humanized antibody, human IgG1 / kappa
IC50 [14]: 0.0357 µg/mL
EC50 [15]: 0.0382 µg/mL
IC50, luciferase reporter (procedure of Example 34) [16]: 0.389 nM

The remaining lines, values ahead:

IC50 [1]: 0.986 µg/mL
Kd [2]: 0.431 nM
koff [2]: 0.000618 s⁻¹
kon [2]: 1.43e+06 M⁻¹ s⁻¹
EC50 [3]: 0.245 µg/mL
IC50, luciferase reporter (Jurkat NFAT-PD1-luc + 293T OS8-hPDL1 cells) [4]: 1 µg/mL
Top (fold increase in activation), luciferase reporter [4]: 3.52
B1: anti-PDL1 murine antibody 58E3-2 (hybridoma cell line KD-22-0227 58E3-2) (antibody, V domains shown)
VH: QVQLKESGGGLVKPGGSLKLSCAASGFTFSDYGIHWVRQAPEKGLEWVAFISSGSSTIYYADTVKGRFTISRDNAKNTLFLQMTSLRSEDTAMYYCTRRDFYGSADAMDYWGQGTSVTVSS
VL: QIVLTQSPAIMSASPGEKVTMTCSASSSVSYMHWYQQKSGTSPKRWIYDTSKLASGVPARFSGSGSGTSYSLTISSMEAEDAATYYCQQWSSNPPYTFGSGTKLEIK
notes: murine antibody

IC50 [9]: 2.26 µg/mL
EC50 [10]: 0.685 µg/mL
B3: anti-PD1 murine antibody 107D12-10 (hybridoma cell line KD-22-0054 107D12-10) (antibody, V domains shown)
VH: QVQLKESGGGLVKPGGSLKLSCAASGFTFSDYGMHWVRQAPEKGLEWVAYISSGSYTIYYADTVRDRFTISRDSAKNTLFLQMTSLRSEDTAMYYCVRRGPGYFGSTALDYWGQGTTLTVSS
VL: QIVLTQSPAIMSASPGEKVTMTCSATSGVSYMHWYQQKSGTSPKRWIYDTSRLASGVPARFSGSGSGTSYSLTISSMEAEDAATYYCQQWSSNPPYTFGSGTKLEIK
notes: murine antibody tested as hybridoma culture supernatant
